These results are taken from article PMC8287938, “Identification and structural analysis of the Schizosaccharomyces pombe SMN complex” (Nucleic Acids Research, 2021).

A word on the stoichiometry N: it is a count of units in the complex or per binding partner.

Positions count from the first letter of the chain named. Numbers in names are those of the source. Where “and” joins values, the source holds several entries; their conditions need not be identical. Identical values can stand only once.

Data set [1] addresses SpSMN/SpG2^ΔN80/SpG6/SpG7/SpG8^Δ35–58 complex (S. pombe) (UniProt Q09808). The experiment in a line: SEC-SAXS; full length SpSMN complexes at various concentrations; molecular weight against the standard SpSMNΔ36–119S130D/SpG2ΔN80. On the technique in general: In gel filtration, larger molecules generally elute earlier.
Data set [2] deals with the molecule itself. The experiment in a line: SEC; gel filtration chromatography of MBP-YG-domain 252–284 fusion proteins.
Data set [3] concerns the molecule itself. The experiment in a line: SEC-SAXS; low concentrations (peak concentrations 5.8–16 μM); Superdex 200 10/300, 150 mM NaCl, 20 mM HEPES, 1 mM DTT, pH 7.5, 20°C.
Data set [4] deals with the molecule itself. The experiment in a line: SEC-SAXS; full length SpSMN complexes at various concentrations; molecular weight against the standard SpSMNΔ36–119S130D/SpG2ΔN80.
The next data set addresses T1, HsG7^46–131 (human, UniProt Q9H840 46-131).
T1 construct: human Gemin7, residues 46-131 (residues 47-131 in the model); also called human Gemin7 46-131; His6-HsG7^46–131; source: E. coli BL21(DE3), co-expressed with HsG6 1-92, purified
T1 sequence (looked up): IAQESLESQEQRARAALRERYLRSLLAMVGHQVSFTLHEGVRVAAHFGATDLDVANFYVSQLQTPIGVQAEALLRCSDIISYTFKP
The experiment in a line: crystal structure; HsG6 1–92/HsG7 46–131/HsG8 190–230, 1.52 Å, PDB 7BBL. The following applies: both partners purified.

In the case of “SpSMN/SpG2^ΔN80/SpG6/SpG7/SpG8^Δ35–58 complex (from UniProt Q09808 1-152; P0CU08 81-235)”, the stoichiometry N in data set [1] came to 4.

B1: MBP-Hs-YG-domain^252–284 (wt) (domain or fragment, human, UniProt Q16637 252-284, looked up)
chain: DSLDDADALGSMLISWYMSGYHTGYYMGFRQNQ
notes: human SMN, YG-domain, residues 252-284; vector pETM-41; also called MBP fusion of human YG-box^252–284; wild-type construct; source: E. coli BL21(DE3), purified; immobilized on Amylose resin for the pull-down
On to B1, for which the binding result in data set [2] is given as “binds”.

B2: MBP-Hs-YG-domain^252–284 H273R (domain or fragment, human, UniProt Q16637 252-284, looked up)
chain: B1 chain with H22R
notes: human SMN, YG-domain, residues 252-284, SMA-causing missense mutation H273R; source: E. coli BL21(DE3), purified; immobilized on Amylose resin for the pull-down
With B2, the binding result in data set [2] is listed as “binds”.

B3: SpSMN^Δ36–119S130D/SpG2^ΔN80 complex (complex, S. pombe)
chain 1: MDQSQKEVWDDSELRNAFETALHEFKKYHSIEAKGYDETYKKLIMDWYYAGYYTGLAEGLAKSEQRKD
chain 2: RKLEIEAGKKSFDPFLRYLLNIIDKEGERLEQYMESSSLDASILPKNLQQWRVYIEHKAPCWAILAVVDLATVLEILESLSSWLEKDAIDLQSQWIFCFCYKLPELLNGEDISTLRSVLKSLRSTHTSFPALQMSASALQAVLVYRYGQKDLFQT
notes: Gemin2 of Schizosaccharomyces pombe (SpG2) lacking the N-terminus (ΔN80); also called S130D mutant; source: E. coli BL21(DE3), co-expressed (SpSMNΔ36–119S130D/His6-SpG2ΔN80), purified (Ni-NTA, TEV, dialysis); not shown: His6, N-terminal, cleaved
In the case of B3, the “stoichiometry N” value in data set [3] was found to be 2.

B4: SpSMN/SpG2^ΔN80 complex (complex, S. pombe)
chain 1: MDQSQKEVWDDSELRNAFETALHEFKKYHSIEAKGGVSDPDSRLDGEKLISAARTEESISKLEEGEQMINQQTETTLEGDTHIQQFADNKGLSDEKPETRAAETHQEFMEVPPPIRGLTYDETYKKLIMSWYYAGYYTGLAEGLAKSEQRKD
chain 2: B3 chain 2
notes: SMN of Schizosaccharomyces pombe (SpSMN); Gemin2 of Schizosaccharomyces pombe (SpG2) lacking the N-terminus (ΔN80); source: E. coli BL21(DE3), co-expressed (SpSMN/His6-SpG2ΔN80), purified (Ni-NTA, TEV, dialysis); not shown: His6, N-terminal, cleaved
B4: the “stoichiometry N” value in data set [4] is 6 and 8.

B5: SpSMN^Δ36–119A134E/SpG2^ΔN80 complex (complex, S. pombe)
chain 1: B3 chain 1 with D46S, A50E
chain 2: B3 chain 2
notes: Gemin2 of Schizosaccharomyces pombe (SpG2) lacking the N-terminus (ΔN80); also called A134E mutant; source: E. coli BL21(DE3), co-expressed (SpSMNΔ36–119A134E/His6-SpG2ΔN80), purified (Ni-NTA, TEV, dialysis); not shown: His6, N-terminal, cleaved
As for B5, the “stoichiometry N” value in data set [3] turned out to be 2.

B6: HsG8^190–230 (domain or fragment, human, UniProt Q9NWZ8 190-230, looked up)
chain: TERPGERRQAEMKRLYGDSAAKIQAMEAAVQLSFDKHCDRK
notes: human Gemin8, residues 190-230 (also printed as 191-230; residues 191-227 in the model); also called HsG8^191–230; human Gemin8 C-terminus; source: E. coli BL21(DE3), purified (Glutathione Sepharose, PreScission); not shown: His6, N-terminal, cleaved; GST, N-terminal, cleaved
For the molecule B6, in the data set with HsG7^46–131, the binding result was “binds”.
